Test results published in patent US11046945B2, “Labeled glutaminase proteins, isolated glutaminase protein mutants, methods of use, and kit” (CORNELL UNIVERSITY, priority 2013, dated 2021).
Substitutions are numbered along the chain they refer to. Names and notes keep the numbering of the source.

B1: QSY® 9-GAC (WT): wild type recombinant mouse GAC labeled with the non-fluorescent acceptor QSY 9 succinimidyl ester (protein)
chain: LSSSPSEILQELGKGGTPPQQQQQQQQQPGASPPAAPGPKDSPGETDAFGNSEGKEMVAAGDNKIKQGLLPSLEDLLFYTIAEGQEKIPVHKFITALKSTGLRTSDPRLKECMDMLRLTLQTTSDGVMLDKDLFKKCVQSNIVLLTQAFRRKFVIPDFMSFTSHIDELYESAKKQSGGKVADYIPQLAKFSPDLWGVSVCTVDGQRHSIGDTKVPFCLQSCVKPLKYAIAVNDLGTEYVHRYVGKEPSGLRFNKLFLNEDDKPHNPMVNAGAIVVTSLIKQGVNNAEKFDYVMQFLNKMAGNEYVGFSNATFQSERESGDRNFAIGYYLKEKKCFPEGTDMVGILDFYFQLCSIEVTCESASVMAATLANGGFCPITGERVLSPEAVRNTLSLMHSCGMYDFSGQFAFHVGLPAKSGVAGGILLVVPNVMGMMCWSPPLDKMGNSVKGIHFCHDLVSLCNFHNYDNLRHFAKKLDPRREGGDQRHSFGPLDYESLQQELALKDTVWKKVSPESSDDTSTTVVYRMESLGERS
B2: QSY® 9-GAC (K316E, D391K, R459E): QSY 9-labeled monomer GAC mutant K316E/D391K/R459E (protein)
chain: B1 chain with K245E, D320K, R388E
B3: QSY® 9-GAC (D391K): QSY 9-labeled constitutive GAC dimer mutant D391K (protein)
chain: B1 chain with D320K

What follows are molecules tested against T1, GAC (Mus musculus, UniProt D3Z7P3) (assay: FRET assay of GAC tetramer formation (488-GAC donor, QSY 9-GAC acceptor)). Conditions: 200 nM QSY 9-labeled protein added to 20 nM 488-WT-GAC.
T1 construct: plasmid (residues 72-603 for GAC, 72-674 for KGA); His-tag with thrombin cleavage site (N, cleaved yes); made in house; host or cells: pET23a vector
T1 sequence (D3Z7P3 72-603 isoform D3Z7P3-2): B1 chain
Format: binding
From the text: A mouse kidney type glutaminase isoform 1 (KGA, NP_001074550.1, which is hereby incorporated by reference in its entirety (SEQ ID NO:7)) and isoform 2 (GAC, NP_001106854.1, which is hereby incorporated by reference in its entirety (SEQ ID NO:3)) plasmid (residues 72-603 for GAC, 72-674 for KGA) was cloned into a pET23a vector containing an N-terminal histidine (His)-tag and thrombin cleavage site. The expressed protein was initially purified using Co^2+ affinity beads (Clontech), after which the His-tag was cleaved with human thrombin (Haemetologic Technologies) overnight at 4° C. and subsequently purified by anion exchange (GE healthcare) and gel filtration chromatography. Purified GAC or KGA was stored in a high salt containing buffer (20 mM Tris-HCl pH 8.5, 500 mM NaCl, 1 mM NaN3) and stored at −80° C. following snap freezing in liquid N2 for long term use. For labeling recombinant GAC or KGA with small molecule probes, 1.5 mg of enzyme was exchanged to 50 mM HEPES pH 7.2, 100 mM NaCl using a PD10 desalting column (GE healthcare) and incubated with 50 μM (5-fold excess of enzyme) of either ALEXA FLUOR® 488 succinimidyl ester or QSY® 9 succinimidyl ester (Molecular Probes) for 1 hr at 4° C. After 1 hr, the labeling reaction was quenched with 150 mM Tris-HCl pH 8.5 and unreacted probe was separated from labeled-enzyme using a PD10 desalting column eluting labeled-GAC back into the high salt containing buffer.
Fluorescence experiments were performed using a Varian Carry Eclipse Fluorometer in the counting mode. Excitation and emission wavelengths were 490 and 520 nm, respectively. Experiments were all prepared as one-mL samples and stirred continuously at 20° C. in 50 mM Tris-Acetate pH 8.5, 0.1 mM ethylenediaminetetraacetic acid (EDTA). For WT GAC titrations in the absence of inorganic phosphate, 10 nM 488-GAC was equilibrated followed by injection of 25 μL of the appropriate concentration of QSY® 9-GAC and was allowed to equilibrate for 10 minutes at which point 75 μL of the appropriate concentration of unlabeled WT GAC was added to give a concentration that was ten-times that of labeled-GAC (i.e., 10-fold excess). For FRET experiments prepared for inorganic phosphate titrations, a similar protocol was followed whereby 10 nM of 488-GAC was equilibrated with 400 nM QSY® 9-GAC followed by injection of 100 μL of the appropriate concentration of K2HPO4 prepared in 50 mM Tris-Acetate (pH=8.5) 0.1 mM EDTA buffer. To test whether purified mutants can form oligomers with WT GAC, 200 nM QSY® 9-D391K-GAC or 200 nM QSY® 9-K316E-D391K-R459E was added to an equilibrated sample of 20 nM 488-WT GAC. Likewise, when assaying the effects of BPTES and 968 on oligomer formation, BPTES or 968 (10 μM or 25 μM, respectively) was added following equilibration of a sample of 200 nM of QSY® 9-WT GAC and 20 nM 488-WT GAC. Both BPTES and 968 were prepared in DMSO, and appropriate dilutions were made so that less than 2% (v/v) DMSO was added to an experimental sample.
For B1, the “EFRET max / energy transfer on addition to 488-GAC (WT)” value (from here on “EFRET max / energy transfer”) was “approximately 0.3”.
In the case of B2, the “EFRET max / energy transfer” value is reported as “no observable energy transfer”.
In the case of B3, the “EFRET max / energy transfer” value is reported as “only a minor extent of FRET”.
